Test results as given in US20240343810A1 (published 2024).
One block for each binder: values may come before it.

Assays:
[1] = molecular target: T1, Biotinylated human ICOS protein (human, UniProt Q9Y6W8 21-140, limits assumed, biotinylated (sites not given)); experiment: SPR ProteOn avidity format, biotinylated human ICOS on NLC chip; calculated on-rate
T1 construct: Captured on the NLC chip in the avidity SPR
T1 sequence: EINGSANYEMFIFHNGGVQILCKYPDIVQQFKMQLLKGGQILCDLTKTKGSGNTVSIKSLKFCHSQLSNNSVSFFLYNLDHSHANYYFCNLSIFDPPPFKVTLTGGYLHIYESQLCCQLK
Experimental: Biotinylated human ICOS protein diluted at 7.5 μg/mL in running buffer (1× HBS-EP+ Buffer Technova, cat. No. H8022) was captured on a NLC sensor chip (Bio-Rad, cat No 1765021). The surface was then blocked using biocytin (Sigma Aldrich, cat No B1758) at 1 mg/mL.
The assay was carried out at 25° C.
The buffer injection (i.e. 0 nM) was used to double reference the sensorgrams. […]

[2] = molecular target: T2, human ICOS-mFc (Chimerigen) (human, UniProt Q9Y6W8 21-140); experiment: HTRF, human ICOS-mFc, competitor human B7-H2-Alexa 647, n1
T2 construct: Bought; also called recombinant human ICOS protein; hICOS; not shown: mouse Fc of the bought fusion
T2 sequence: T1 sequence
Experimental: 5 μl of human ICOS-mFc (Chimerigen) at 20 nM (5 nM final) or 5 ul of mouse ICOS-mFc (Chimerigen) at 4 nM (1 nM final) were added to relevant assay wells. Plate was incubated for 1 hour (hr) at room temperature (RT).
After incubation, assay was read on Envision plate reader (Perkin Elmer) using a standard HTRF protocol. 620 nm and 665 nm channel values were exported to Microsoft Excel and % Delta-F and % Neutralisation calculations performed. Titration curves and IC50 values [M] were plotted using Graphpad (Prism). IC50 values were calculated by first transforming the data using equation X=Log(X). The transformed data was then fitted using nonlinear regression, using fitting algorithm, log (inhibitor) vs. response—variable slope (four parameters).

[3] = molecular target: T3, human ICOS expressed on cells (human, UniProt Q9Y6W8 21-199); experiment: Flow cytometry on CHO-S human ICOS cells, anti-human IgG AF647, mean
T3 construct: also called CHO-S cells transfected with human ICOS; hICOS
T3 sequence: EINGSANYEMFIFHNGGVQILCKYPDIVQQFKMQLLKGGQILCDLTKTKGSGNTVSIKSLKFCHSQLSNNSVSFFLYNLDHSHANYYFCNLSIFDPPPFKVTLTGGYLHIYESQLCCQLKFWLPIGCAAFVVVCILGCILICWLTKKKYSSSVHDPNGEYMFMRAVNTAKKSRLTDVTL
Experimental: (§1) CHO—S cells transfected with either human ICOS or mouse ICOS were resuspended in FACS buffer (PBS+1% w/v BSA+0.1% w/v sodium azide) and transferred to a 96-well V-bottom plate (Greiner) at a density of 1×10⁵ cells per well. mAb and mAb² were titrated in FACS buffer, 1 in 3 dilution across 11 points from a starting working concentration of 400 nM. Plates were centrifuged at 300×g for 3 minutes, supernatant discarded and 50 μL mAb or mAb² solution were added to cells and incubated at 4° C. for 1 hour. Cells were washed with 150 μL of PBS and centrifuged at 300×g for 3 minutes, supernatant was discarded and cell pellet resuspended in 150 μL PBS added. This wash step was repeated twice. Bound mAb or mAb² was detected by addition of 50 μL of anti-human 647 (Jackson ImmunoResearch) diluted to 3 ug/ml in FACS buffer. Cells were incubated for 1 hour at 4° C. in the dark. Cells were washed with 150 μL of PBS and centrifuged at 300 g for 3 minutes, supernatant was discarded and cell pellet resuspended in 150 μL PBS added. This wash step was repeated twice. Cells were fixed with 25 μL 4% v/v paraformaldehyde, incubated for 20 minutes at 4° C., cells were pelleted by centrifugation at 300×g and the supernatant discarded. […] AlexaFluor 647 signal intensity (geometric mean) was measured by flow cytometry using a Beckman Coulter CytoFLEX instrument.

[4] = molecular target: T4, mouse ICOS expressed on CHO cells (mouse, UniProt Q9WVS0 21-200); experiment: Flow cytometry on CHO-S mouse ICOS cells, anti-human IgG AF647, N=1
T4 construct: also called CHO-S cells transfected with mouse ICOS; mICOS
T4 sequence (looked up): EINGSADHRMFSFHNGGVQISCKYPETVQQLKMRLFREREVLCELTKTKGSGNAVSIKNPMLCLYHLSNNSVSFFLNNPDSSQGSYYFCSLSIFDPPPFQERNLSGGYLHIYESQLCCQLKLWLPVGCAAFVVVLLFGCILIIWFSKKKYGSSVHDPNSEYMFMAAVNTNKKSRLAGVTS
Experimental: as §1

[5] = molecular target: T2, human ICOS-mFc (Chimerigen); experiment: DELFIA ELISA on coated human ICOS-mFc, N=2
Experimental: (§2) Recombinant ICOS proteins, human ICOS-mFc or mouse ICOS-mFc (Chimerigen) were diluted in 1×PBS and added to Black Hi-bind plates (Griener) at 1 μg/ml, 50 μl/well. Recombinant PD-L1 proteins, human PD-L1-Flag-His or mouse-His were diluted in 1×PBS and added to Black Hi-bind plates (Griener) at 4 μg/ml, 50 μl/well. The plates were left overnight at 4° C. The next day plates were washed 3× with 300 μl/well of 1×PBS+0.1% Tween and blocked with 200 ul/well of 1×PBS+1% BSA blocking buffer for 1 hr at RT on a plate shaker. Plates were washed 3× with 300 μl/well of 1×PBS+0.1% Tween.
(§3) However, human-PD-L1 mAb² antibodies were diluted in 1×PBS+0.1% BSA buffer and diluted 1 in 2 from a starting working concentration of 0.066 μM over an 11 point titration. Titrated antibodies were added to the plates, 50 μl/well and left to incubate for 1 hr at R.T on a plate shaker. Plates were washed 3× with 300 μl/well of 1×PBS+0.1% Tween.
(§4) DELFIA® Eu-labelled Anti-human IgG (Perkin-Elmer) was diluted 1:500 in DELFIA Assay buffer (Perkin-Elmer) and added to the assay plate (50 μl/well), left to incubate for 1 hr at RT on a plate shaker. […] After incubation, assay was read on Envision plate reader (Perkin Elmer), Time-resolved fluorescence (TRF) was measured at 615 nm.

[6] = molecular target: T2, human ICOS-mFc (Chimerigen); experiment: DELFIA ELISA on coated human ICOS-mFc, N=1
Experimental: as §2, §3, §4

- kon [1]: 7990 M⁻¹ s⁻¹
- IC50 [2]: 0.96 nM
- EC50 [3]: 21.2 nM
- EC50 [4]: 25.7 nM
- EC50 [5]: 25.5 nM
- EC50 [6]: 20 nM
B1: STIM001 (antibody, human IgG1, kappa)
heavy: not shown
light: DIVMTQSPLSLPVTPGEPASISCRSSQSLLHSNEYNYLDWYLQKPGQSPQLLIFLGSNRASGVPDRFSGSGSGTDFTLKITRVEAEDVGIYYCMQSLQTPLTFGGGTKVEIKRTVAAPSVFIFPPSDEQLKSGTASVVCLLNNFYPREAKVQWKVDNALQSGNSQESVTEQDSKDSTYSLSSTLTLSKADYEKHKVYACEVTHQGLSSPVTKSFNRGEC
notes: Anti-ICOS monospecific antibody, tested as human IgG1; also called STIM001 monoclonal IgG1 antibody

- kon [1]: 267000 M⁻¹ s⁻¹
- IC50 [2]: 0.43 nM
- EC50 [3]: 5.53 nM
- EC50 [4]: 6.8 nM
- EC50 [5]: 1.04 nM
- EC50 [6]: 0.488 nM
B2: STIM003 (antibody, human IgG1, kappa)
heavy: not shown
light: EIVLTQSPGTLSLSPGERATLSCRASQSVSRSYLAWYQQKRGQAPRLLIYGASSRATGIPDRFSGDGSGTDFTLSISRLEPEDFAVYYCHQYDMSPFTFGPGTKVDIKRTVAAPSVFIFPPSDEQLKSGTASVVCLLNNFYPREAKVQWKVDNALQSGNSQESVTEQDSKDSTYSLSSTLTLSKADYEKHKVYACEVTHQGLSSPVTKSFNRGEC
notes: Anti-ICOS monospecific antibody, tested as human IgG1; also called STIM003 monoclonal IgG1 antibody
